Measured values: the nanobody polyreactivity screen of Harvey et al. (2022)

Assay: yeast display, Sf9 membrane polyspecificity reagent, FACS + sequencing; frameworks hold sequencing errors
In short: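 Nanobodies from a synthetic yeast display library (Saccharomyces cerevisiae BJ5465), induced 36–48 hours with galactose, were stained 1 hour at 4 °C with 10% biotinylated, detergent-solubilized Sf9 membrane reagent, enriched on streptavidin microbeads, then FACS-sorted. Anti-HA (expression) and streptavidin (reagent binding) fluorescence set low and high (top ~1%) gates. Polyreactivity labels come from the gate of origin. Genes were colony-PCR amplified, MiSeq 2 × 250 sequenced and filtered by CDR length.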

Row | Sequence | polyreactivity (PSR sort gate)
1 | QDQLVESGGGLVQAGGSLRLRCAASGSIFGGYAMGWYRQAPGKERELVDAISSGGTTNYADSVMGRFTISRDNAKNTVYLQMNSLKQEDRAVYYCAREYGTTYQSVQVKFIQLDYWGQGTLVTVSS | low polyreactivity
2 | QDQLVESGGGLVQAGGSLRLSCAASGFIFFGYAMGWYRQAPGKERELVAAITSGGSTYYADSVKGRFTISRDNAKNTVYLQMNSLKPEDTAVYYCAAVLWYGSKRYGYWGQGTQVTVSS | high polyreactivity
3 | QDQLVESGGGLVQAGGSLRLSCAASGFIFGRYTMGWYRQAPGQDRELVAAISSRGGSTYDADSGKGRFTISRDNAKNTVYLQMNSLKPEDTAVYYCNALRRPSTEGRDYWGQGTQVTVSS | high polyreactivity
4 | QDQLVESGGGLVQAGGSLRLSCAASGFIFKWNAMGWYRQAPGKERELVAGITRGGSTYADSVKGRFTISRDNAKNTVYLQMNSLKPEDTAVDYCAAGDYDEYDYWGQGTQVTVSS | high polyreactivity
5 | QDQLVESGGGLVQAGGSLRLSCAASGFTFGSYAMGWYRQAHGKERELVAAITASGGSTYYADSVKGRFTISRDNAKNTVYLQMNSLKPEDTAFYYCATRRYDGVAAFRMYYWGQGTQVTVSS | high polyreactivity
6 | QDQLVESGGGLVQAGGSLRLSCAASGFTFRDYTRGWYRQAPGKERELVAAISLSGGSTYYADSVKGRFTISRDNAKNTVYFQMNSLKPEDTAVYYCAAGYLLWRTWDYGAGHNFWGQGTQVTVSS | high polyreactivity
7 | QDQLVESGGGLVQAGGSLRLSCAASGFTFRHYVMGGSRQAPGKERELVAAIDVRGGSTYYADSVKGRFTISRDNAKNTVYLQMNSLKPEDTAVYYCAKRLIPRLPIMQKMDYWGQGTQVTVSS | low polyreactivity
8 | QDQLVESGGGLVQAGGSLRLSCAASGFTFSAYAMGWYRQAPGKERELVAAISTRGGSTRYADSVKGRFTISRDNAKNTVYLQMNSLKPEDTAVYYCAVEVYSYLYYETYPTEYEYWGQGTQVTVSS | high polyreactivity
9 | QDQLVESGGGLVQAGGSLRLSCAASGFTFYPYTRGWYRQAPGKERELVAAISKSGGSTYYADSVKGRFTISRDNAKNTVYLQMNSLKPEDSAVYYCAAQRYSYYTPDDDYWGQGTQVTVSS | high polyreactivity
10 | QDQLVESGGGLVQAGGSLRLSCAASGGIFFYYVMGWYRKAPGKEREFVAAITSGGSTYYADSVKGRFTISGDNAKNTVYLQMNRLKPEDTAVYYCNARDVVDYSVWSRYAYDYWGQGTQVTVSS | low polyreactivity
11 | QDQLVESGGGLVQAGGSLRLSCAASGGTFSLYAKGWYRQAPGKEREFVAAISWRGTSTYYADSVKGRFTISRDNAKNTVYLQMNSLKPEDTAVYYCAARAWHEYGSWVQGTQVTVSS | high polyreactivity
12 | QDQLVESGGGLVQAGGSLRLSCAASGHIISTYAMGWYRPAPGKERQLVASISENGGTTYYADSVKGRFTISRDIAKNTVYLQMYSLKPEDTAVYYCNADAYVYFDDGDYWGQGTQVTVSS | low polyreactivity
13 | QDQLVESGGGLVQAGGSLRLSCAASGIIFYGYAMGWYRQAPGKERQLVAGISSGGSTYYADSVKGRFTISRDNAKNTVYLQMNSLNPEDTAVYYCNAEGGYSYESTDHYRYDYWGLGTQVTVSS | low polyreactivity
14 | QDQLVESGGGLVQAGGSLRLSCAASGIIFYVYAMGWYRLAPGKERELVAAISRSGGRTYYADSVKGRFTISRDNAKNTVYFQMNSLKPEDTAVYYCAADAYRTPTHYYWGQGTQVTVSS | high polyreactivity
15 | QDQLVESGGGLVQAGGSLRLSCAASGITFDRYALGWYRQAPGKEREFVAAISWRGGSTYYADSVKGRFTISRDNAKNTVYLQMNSLKPEDTAVYYCAVGYYDHDYWYEYWGQGSQVTVSS | high polyreactivity
16 | QDQLVESGGGLVQAGGSLRLSCAASGITFQWYAMGWYRQAPGKEREFVAAITYRGGSTYYADSVKGRFTISRDNAKNTVYLQMNSLKPEDTAVYYCARDDSRLLHPSWLDYWGKGTQVTVSS | high polyreactivity
17 | QDQLVESGGGLVQAGGSLRLSCAASGITFSSNAMGGYRQAPGKERELVAAISRNGDRTYYADSVKGRFTISRDNAKNTVYLQMNSLKPEVTAVYYCATAYPGSRRDYWGQGTQVTVSS | high polyreactivity
18 | QDQLVESGGGLVQAGGSLRLSCAASGITFYTYAMGWSRQAPGKERELVAAISRSGGSTYYADSVKGRITISRDNAKYTVYLQMNSLKPEDSAVYYCAAVYRGRDMDYWGLGTQVTVSS | high polyreactivity
19 | QDQLVESGGGLVQAGGSLRLSCAASGLIFIDYAMGWYRQAPGKERELVAAITRGGARTYYADSVKGRFTISRDNAKNTVYLQMNSLNPEDTAVYYCAADRPGSRYIDVDYWGQGTQVTVSS | high polyreactivity
20 | QDQLVESGGGLVQAGGSLRLSCAASGLIFLYAMGWYRQAPGKERELVAAISNGGSTYYADSVKGRFTISRDNAKNTVYLQMNSLKPEDTAVYYCAAKGVRRRYRPDMYYWGQGTQVTVSS | high polyreactivity
21 | QDQLVESGGGLVQAGGSLRLSCAASGLIFNVNNMGWYRQAPGKDRELVAAISWSGTSTYYADSVKGRFTISRDKAKNTVYLQMNSLKPEDTAVYYCAAYNHRWEYEYWGQGTQVTVSS | high polyreactivity
22 | QDQLVESGGGLVQAGGSLRLSCAASGLIFRIYAMGWYRQAAGKERELVAAITSGGTSTSYADSVKGRFSISRDNAKNTVYLQMNSLKPEDTAVYYCNARWSDRVRIGLDYWGQGTQVTVSS | high polyreactivity

Row | Sequence | polyreactivity (PSR sort gate)
23 | QDQLVESGGGLVQAGGSLRLSCAASGLIIRWYAMGWDRQAPGKERELVAAISGNGGRTYYADSVKGRFTISRDNASNTVYLQMNSLKPEDTAVYYCAAEYRRALGVDYWGQGTQVTVSW | high polyreactivity
24 | QDQLVESGGGLVQAGGSLRLSCAASGLTFDSYAMGWYRQAPGKERELVAAISWNTASTYYADSVKGRFTISRDNAKNTVYLQMNSLKPEDTAVYYCAAARSRRPHYDYWRQGTQVTVSS | high polyreactivity
25 | QDQLVESGGGLVQAGGSLRLSCAASGLTFEVYAMGWYRQAPGKERELVAAISSGGGSKYYADSVKGRFTISRDNAKNTVYLQMISLKPEDTAVYYCNAVAKLYYWRYDYLGQGTQVTVSS | low polyreactivity
26 | QDQLVESGGGLVQAGGSLRLSCAASGLTFRLYAMGSYRQAPAKEREWVAAITSSSGSTYYADSVKGRFTISRDTANYTVYLQMNSLKPEDTAVYYCNAVRYTTQTPNVDYGYWGLGTQVTVSS | high polyreactivity
27 | QDQLVESGGGLVQAGGSLRLSCAASGLTLLHYAMGWYRQAPGKERELVAAISTRGGSTYYADSVKGRFTISRDNAKNTVYLQMNSLKPEDTADYYCNALKGRPRGTAGYYRVEYWGQGTQVTVSS | high polyreactivity
28 | QDQLVESGGGLVQAGGSLRLSCAASGLTYYVYSMGWYRQAPGKERELVARITWSGGSTYYADSVKGRFTISRDNAKNTVYLQMNSVKAEDTAVYYSAAEWSEESDYWGQVTQVTVSS | low polyreactivity
29 | QDQLVESGGGLVQAGGSLRLSCAASGNIFKCKVMGWYRQAPGKERELVAAISRSGGRTYYADSVKGRFTISRDNAKNTVYLQMNSLKPVDTAVYYCNTKHRTKPTRPVDYWGQGTQVTVSS | high polyreactivity
30 | QDQLVESGGGLVQAGGSLRLSCAASGNIFWSNAMGWYRQAPVKERELVAGIRSTGGSTYYADSVKGRFTISRDNAKNTVYLQMNSLKPEDTAVYYCAAEHWYSTPWWTDDYWGQGTQVTLSS | high polyreactivity
31 | QDQLVESGGGLVQAGGSLRLSCAASGRIFNQYGMGWYRQAPGKERELVAAIRSGDSTNYADSVKGRFTISRDNAKNTVYLQMNSLKPEDTAVYYCARDRPGDYAGYDYWGQGTQVTVSS | low polyreactivity
32 | QDQLVESGGGLVQAGGSLRLSCAASGRIFPAYVMGWYRQAPGKERELVATIDNGGGTYYADSVKGRFTISRDNAKNTVYLQMNSLKPEDTAVYYCARDRHVRWGLKMDYWGQGTQVTVSS | low polyreactivity
33 | QDQLVESGGGLVQAGGSLRLSCAASGRIISLYAMGWYRQAPVKERDLVAAISRRSGNTNYADSVKGRFTISRDNAKNTVYLQMNSLKPEDTAVYYCAARPGAISSTSPYDYWGQGTQVTVSS | high polyreactivity
34 | QDQLVESGGGLVQAGGSLRLSCAASGRIVSDYAMGWYRQAPGKERELVARISRSDGSSYYADSVKGRFTISRDNAKNTVYLQMNSLKPEDTAVYYCAAQWTDGRRDHWWDKGFYYWGQGTQVTVSS | low polyreactivity
35 | QDQLVESGGGLVQAGGSLRLSCAASGRLFSQYAMGWYRQAPGKERELVAAISWRTGSTYYADSVKGRFTISRDNAKNTVYLQMNSLKPEDTAVYYCSAANAGRYPYNYSGQGTQVTVSS | high polyreactivity
36 | QDQLVESGGGLVQAGGSLRLSCAASGRNFPGYVMGWYRQAPGKERELVAVITSNGGITYYADSVKGRFTISRDNAKNTVYLQMNSLKPEDTAVYYCAAYEIYYEFDSWGQGTLVTVSS | low polyreactivity
37 | QDQLVESGGGLVQAGGSLRLSCAASGRTFDSYAMGWYRQAPGKERELVAAIDADSVKGRFTISRDNAKNTVYLQMNSLKPEVTAVYYCAKPSRWGWTGFYAYEYWGQGTQVTVSS | low polyreactivity
38 | QDQLVESGGGLVQAGGSLRLSCAASGRTFEGNAMGWYRQAPGKERELVAAITSGGRTNYADSVKGRFTISRDNAKNTVYLQMNSLKPEDTEVYYCANVYRSIGPNVSRYGLSYYYWGQGTQVTVSS | low polyreactivity
39 | QDQLVESGGGLVQAGGSLRLSCAASGRTFGEYAMGWYRQAPGKERELVAAISSTGSTYYADSVKGRFTISRDNAKNTVYLQMNSLKPEDTAVYDCAAEIVRYGDEYDYWGQGTQVTVSS | low polyreactivity
40 | QDQLVESGGGLVQAGGSLRLSCAASGRTFGVNAMGWYRQAPGKERELVASIRWNGGSTYYADSVKGRFTISRDNAKNTVYFQMNSLKPEDTAVYYCNAVRRYRSREFDYWGQGTQVNVSS | low polyreactivity
41 | QDQLVESGGGLVQAGGSLRLSCAASGRTFHSYVMGWYRQAPGKERELVAAISRSGGNTYYADSVKGRFTISRDNAKNTVYLQMNSLKPEDTAVYYCAAALSAYVKWDYYYWGQGTQVTVSS | low polyreactivity
42 | QDQLVESGGGLVQAGGSLRLSCAASGRTFIYYVMGWSRQAPGKERELVAAISLRGSSTRYADSVKGRFTISRDNAKNTVYLQMNSLKPEDTAVYYCAARPRLSRYDYWGQGTQVTVSS | high polyreactivity
43 | QDQLVESGGGLVQAGGSLRLSCAASGRTFRSYAMGWSRQAPGKERELVAAISTRGGSTYYADSVKGRFTISRDYAKNTVYLQMNSLKPEDTAVYYCAARGTPSARYGDWGQGTQVTVSS | high polyreactivity
